This passage reports ratio to parent results from paper PMC11371640, “Structural deficits in key domains of Shank2 lead to alterations in postsynaptic nanoclusters and to a neurodevelopmental disorder in humans” (Molecular Psychiatry, 2022).

To fix the notation:
B1: His6-SUMO-tagged SH3 to PDZ domains of Shank2 (R520-D727), WT [not stated (human or rat cDNA cloned)] / synthetic peptide of the complete PDZ ligand of GKAP (last 15 amino acids of GKAP/SAPAP1) [not stated] (parent)
chain 1: RKLYSAVPGRLFVAVKPYQPQVDGEIPLHRGDRVKVLSIGEGGFWEGSARGHIGWFPAECVEEVQCKPRDSQAETRADRSKKLFRHYTVGSYDSFDTSSDCIIEEKTVVLQKKDNEGFGFVLRGAKADTPIEEFTPTPAFPALQYLESVDEGGVAWQAGLRTGDFLIEVNNENVVKVGHRQVVNMIRQGGNHLVLKVVTVTRNLDPDD
chain 2: ADSIEIYIPEAQTRL

The variants in this experiment derive from B1. As to the kind of experiment: ITC. The note with it: with synthetic peptide of the complete PDZ ligand of GKAP (last 15 amino acids of GKAP/SAPAP1); parent: 1.
Take chain 1 V198F: the ratio to parent was 2.6.

Take chain 1 S91Y: the ratio to parent came to 2.8.

Regarding chain 1 N171S, the ratio to parent turned out to be 1.3.
